Laboratory results published in paper PMC9330529.
pKd: −log10 of the molar value. Where two headings read alike, the source gives them in different places.

Assays:
[1] = target: SARS-CoV-2 spike protein WT (SARS-CoV-2 (WT)) (UniProt P0DTC2)
[2] = target: SARS-CoV-2 spike protein WT (SARS-CoV-2 (WT)) (UniProt P0DTC2); assay: competition ELISA
[3] = target: SARS-CoV-2 spike protein WT (SARS-CoV-2 (WT)) (UniProt P0DTC2); remark: listed apart in the source
[4] = target: SARS-CoV-2 spike protein WT (SARS-CoV-2 (WT)) (UniProt P0DTC2); remark: listed apart in the source

| Sequence | pKd [1] | binding signal (% spike still bound to hACE2) [2] | pKd [3] | pKd [4] |
| --- | --- | --- | --- | --- |
| AGGCGGGTTCCTAGACTTGTACTCAGCCTTTTTTTTTTTTTTTTCGCAGCACCCAAGAACAAGGACTGCTTAGGATTGCGATAGGTTCGG [S2A2C1-T15-S1B6C3] | 7.21 | – | – | – |
| CGCAGCACCCAAGAACAAGGACTGCTTAGGATTGCGATAGGTTCGGAAAAAAAAAAAAAAAAGGCGGGTTCCTAGACTTGTACTCAGCCT [S1B6C3-A15-S2A2C1] | – | 12 | – | – |
| CGCAGCACCCAAGAACAAGGACTGCTTAGGATTGCGATAGGTTCGGAAAAAAGGCGGGTTCCTAGACTTGTACTCAGCCT [S1B6C3-A5-S2A2C1] | – | 8 | 7.45 | 7.46 |
| CGCAGCACCCAAGAACAAGGACTGCTTAGGATTGCGATAGGTTCGGTTTTTTTTTTTTTTTAGGCGGGTTCCTAGACTTGTACTCAGCCT [S1B6C3-T15-S2A2C1] | 7.34 | 24 | – | – |
